Results on one substance are retold here after PMC11933065, “Characterization of FosA13, a novel fosfomycin glutathione transferase identified in a Morganella morganii isolate from poultry” (Frontiers in Cellular and Infection Microbiology, 2025).

For this data set, the system named is C[C@@H]1O[C@@H]1P(=O)(O)O. Put plainly: HPLC, initial rates, Michaelis-Menten fit. The format is biochemical, Morganella morganii. Particulars: 10 mM GSH, 250 µM MnCl2, 100 mM KCl, 100 mM Tris-HCl, 37 °C, fosfomycin 0-800 µM, printed unit µM conflicts with printed kcat/Km (1.50 × 10^4 M^-1 s^-1), which implies mM.

For orientation: kcat means the maximal rate divided by the concentration of active sites. In the case of “FosA13 (Morganella morganii subsp. morganii KT)”, the turnover number (kcat) is 6.43 ± 0.04 s⁻¹.
